# Results: patent publication US20230287109
# Molecular target: dimeric human Tie2 extracellular domain (ECD)-human IgG fusion protein (UniProt Q02763)
# Sequence (Q02763 23-748): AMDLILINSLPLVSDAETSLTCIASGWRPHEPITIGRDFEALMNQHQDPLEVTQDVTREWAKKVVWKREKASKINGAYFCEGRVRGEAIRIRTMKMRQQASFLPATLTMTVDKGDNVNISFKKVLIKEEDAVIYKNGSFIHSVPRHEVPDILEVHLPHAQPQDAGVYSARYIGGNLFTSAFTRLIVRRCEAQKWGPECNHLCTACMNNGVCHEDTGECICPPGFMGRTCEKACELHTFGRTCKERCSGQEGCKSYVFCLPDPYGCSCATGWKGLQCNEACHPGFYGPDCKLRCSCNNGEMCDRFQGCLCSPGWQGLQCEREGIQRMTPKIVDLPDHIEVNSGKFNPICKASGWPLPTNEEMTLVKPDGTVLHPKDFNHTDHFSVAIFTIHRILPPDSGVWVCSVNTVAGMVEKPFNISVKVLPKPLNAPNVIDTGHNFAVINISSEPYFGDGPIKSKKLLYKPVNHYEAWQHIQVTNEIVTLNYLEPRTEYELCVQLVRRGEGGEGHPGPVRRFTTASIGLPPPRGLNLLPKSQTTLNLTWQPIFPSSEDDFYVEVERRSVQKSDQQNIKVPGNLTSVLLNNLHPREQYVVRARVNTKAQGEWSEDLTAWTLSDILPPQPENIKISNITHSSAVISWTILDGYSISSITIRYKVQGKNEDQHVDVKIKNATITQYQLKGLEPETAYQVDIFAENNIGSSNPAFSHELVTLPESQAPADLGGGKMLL
substance,measurement,value
Recombinant human MMP-14,"cleavage of hTie2-ECD (reducing SDS-PAGE, 30° C., 16 hours)","co-incubation of MMP-14 and human Tie2 resulted in significant reduction of intact hTie2-ECD, with the appearance of shorter, cleaved fragments"
